Experimental data reported in article PMC6537384, “A GDF11/myostatin inhibitor, GDF11 propeptide-Fc, increases skeletal muscle mass and improves muscle strength in dystrophic mdx mice” (Skeletal Muscle, 2019).

Columns and labels:
recombinant MSTN = biological target: T1, recombinant MSTN (UniProt O14793 267-375); test: cell-based or functional assay
T1 sequence (looked up): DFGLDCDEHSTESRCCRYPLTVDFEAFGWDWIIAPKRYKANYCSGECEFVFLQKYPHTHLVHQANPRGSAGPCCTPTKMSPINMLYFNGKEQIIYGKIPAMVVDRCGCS

recombinant GDF11 = biological target: T2, recombinant GDF11 (UniProt O95390 299-407); test: cell-based or functional assay
T2 sequence (looked up): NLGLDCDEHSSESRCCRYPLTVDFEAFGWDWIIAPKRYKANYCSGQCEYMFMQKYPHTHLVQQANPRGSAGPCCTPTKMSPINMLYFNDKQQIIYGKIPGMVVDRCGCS

B1: GDF11 propeptide-Fc (Fc fusion, human, UniProt O95390 25-298, looked up)
chain: AEGPAAAAAAAAAAAAAGVGGERSSRPAPSVAPEPDGCPVCVWRQHSRELRLESIKSQILSKLRLKEAPNISREVVKQLLPKAPPLQQILDLHDFQGDALQPEDFLEEDEYHATTETVISMAQETDPAVQTDGSPLCCHFHFSPKVMFTKVLKAQLWVYLRPVPRPATVYLQILRLKPLTGEGTAGGGGGGRRHIRIRSLKIELHSRSGHWQSIDFKQVLHSWFRQPQSNWGIEINAFDPSGTDLAVTSLGPGAEGLHPFMELRVLENTKRSRR
In the case of B1, the “average myotube diameter relative to control, C2C12 myotubes expressing GDF11PRO-Fc (AAV6) treated with 100 ng/ml rMSTN (rMSTN alone: − 35%)” value (recombinant MSTN) is reported as -5.3%, the “differentiation index relative to untreated control, C2C12 myotubes expressing GDF11PRO-Fc (AAV6) treated with 100 ng/ml rMSTN (rMSTN alone: − 14%)” value (recombinant MSTN) is reported as -3% and the “average myotube diameter relative to control, C2C12 myotubes expressing GDF11PRO-Fc (AAV6) treated with 100 ng/ml rGDF11 (rGDF11 alone: − 39%)” value (recombinant GDF11) is reported as -1.8%. For the same binder, the “differentiation index relative to untreated control, C2C12 myotubes expressing GDF11PRO-Fc (AAV6) treated with 100 ng/ml rGDF11 (rGDF11 alone: − 15%)” value (recombinant GDF11) was -1.9%.
